Patent US20250313631A1 (HUMMINGBIRD BIOSCIENCE PTE, published 2025)
Numbering of substitutions follows the chain as printed. Like-named read-outs stand apart in the source and are kept apart here. Blank lines part the entries; values can stand above or below the binder they belong to.

What was measured:
[1] = molecular target: T1, recombinant rat VISTA (His-tagged) (rat, UniProt A0ABK0L5H3 33-192); test: ELISA, plate coated with rat VISTA
T1 sequence: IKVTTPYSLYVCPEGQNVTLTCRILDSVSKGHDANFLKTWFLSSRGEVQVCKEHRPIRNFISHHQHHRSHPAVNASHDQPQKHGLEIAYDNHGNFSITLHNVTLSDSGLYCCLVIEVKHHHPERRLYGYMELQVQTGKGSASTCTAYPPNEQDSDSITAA

[2] = molecular target: T2, recombinant cynomolgus macaque VISTA (His-tagged) (cynomolgus macaque, UniProt A0A7N9IB00 33-194); test: ELISA, plate coated with cyno VISTA
T2 construct: also called cyno VISTA; cynomolgus monkey VISTA

[3] = molecular target: T3, recombinant human VISTA (His-tagged) (human, UniProt Q9H7M9 33-194); test: ELISA, plate coated with human VISTA
T3 construct: bought soluble protein (Sino Biological); also called hVISTA; human VISTA polypeptide

[4] = molecular target: T4, human PD-1 (human, UniProt Q15116 25-167); test: ELISA, plate coated with the antigen
[5] = molecular target: T5, human B7H3 (human, UniProt Q5ZPR3 29-461, limits assumed); test: ELISA, plate coated with the antigen
T5 construct: also called CD276
T5 sequence (looked up): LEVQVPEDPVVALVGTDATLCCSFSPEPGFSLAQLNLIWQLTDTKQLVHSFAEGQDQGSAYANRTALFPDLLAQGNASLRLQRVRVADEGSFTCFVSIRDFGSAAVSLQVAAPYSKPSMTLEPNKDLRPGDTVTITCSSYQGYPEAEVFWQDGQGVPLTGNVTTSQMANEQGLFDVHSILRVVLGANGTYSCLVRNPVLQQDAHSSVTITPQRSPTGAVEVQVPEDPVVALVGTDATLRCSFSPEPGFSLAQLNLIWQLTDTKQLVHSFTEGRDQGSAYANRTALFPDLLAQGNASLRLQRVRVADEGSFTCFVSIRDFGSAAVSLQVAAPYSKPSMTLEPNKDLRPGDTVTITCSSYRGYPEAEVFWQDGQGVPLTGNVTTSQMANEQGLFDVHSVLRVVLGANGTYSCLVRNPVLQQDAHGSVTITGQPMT

[6] = molecular target: T6, human B7H4 (human, UniProt Q7Z7D3 25-258, limits assumed); test: ELISA, plate coated with the antigen
T6 construct: also called VTCN1
T6 sequence (looked up): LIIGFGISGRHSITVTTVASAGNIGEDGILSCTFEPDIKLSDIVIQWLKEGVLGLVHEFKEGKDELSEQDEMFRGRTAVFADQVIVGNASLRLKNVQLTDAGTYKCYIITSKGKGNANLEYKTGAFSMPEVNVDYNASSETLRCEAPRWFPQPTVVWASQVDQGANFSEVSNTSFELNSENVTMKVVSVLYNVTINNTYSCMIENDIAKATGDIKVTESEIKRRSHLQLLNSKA

[7] = molecular target: T7, human B7H6 (human, UniProt Q68D85 25-262); test: ELISA, plate coated with the antigen
T7 construct: also called NCR3LG1
T7 sequence (looked up): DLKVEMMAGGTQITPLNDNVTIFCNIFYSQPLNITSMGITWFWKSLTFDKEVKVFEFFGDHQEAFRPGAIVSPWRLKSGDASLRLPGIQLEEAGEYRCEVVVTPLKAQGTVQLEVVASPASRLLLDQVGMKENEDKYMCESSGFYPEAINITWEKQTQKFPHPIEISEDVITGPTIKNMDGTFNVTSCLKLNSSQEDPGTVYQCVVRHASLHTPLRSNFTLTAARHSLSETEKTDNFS

[8] = molecular target: T8, human B7H7 (human, UniProt Q9UM44 23-344); test: ELISA, plate coated with the antigen
T8 construct: also called HHLA2
T8 sequence (looked up): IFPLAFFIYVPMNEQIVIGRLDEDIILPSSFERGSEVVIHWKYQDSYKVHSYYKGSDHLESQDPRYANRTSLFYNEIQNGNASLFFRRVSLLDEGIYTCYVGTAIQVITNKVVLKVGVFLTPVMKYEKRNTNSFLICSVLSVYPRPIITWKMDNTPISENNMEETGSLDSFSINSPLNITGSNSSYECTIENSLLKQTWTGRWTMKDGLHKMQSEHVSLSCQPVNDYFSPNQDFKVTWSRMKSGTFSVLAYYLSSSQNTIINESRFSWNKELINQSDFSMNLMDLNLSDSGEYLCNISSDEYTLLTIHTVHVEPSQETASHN

[9] = molecular target: T9, human CTLA4 (human, UniProt P16410 36-162); test: ELISA, plate coated with the antigen
[10] = molecular target: T3, recombinant human VISTA (His-tagged); test: ELISA, plate coated with human VISTA; remark: listed apart in the source
[11] = molecular target: T10, recombinant mouse VISTA (His-tagged) (mouse, UniProt Q9D659 33-191); test: ELISA, plate coated with mouse VISTA
T10 construct: also called murine VISTA; mVISTA
T10 sequence (looked up): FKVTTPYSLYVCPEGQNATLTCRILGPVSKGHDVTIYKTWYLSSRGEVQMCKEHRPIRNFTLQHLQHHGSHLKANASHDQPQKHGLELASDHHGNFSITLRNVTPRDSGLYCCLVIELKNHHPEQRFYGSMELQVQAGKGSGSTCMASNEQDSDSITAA

[12] = molecular target: T3, recombinant human VISTA (His-tagged); test: BLI (Octet), 1:1 global fit, His-tagged human VISTA captured
[13] = molecular target: T10, recombinant mouse VISTA (His-tagged); test: BLI (Octet), 1:1 global fit, His-tagged mouse VISTA captured
[14] = molecular target: T10, recombinant mouse VISTA (His-tagged); test: as above; remark: listed apart in the source
[15] = molecular target: T3, recombinant human VISTA (His-tagged); test: ELISA, plate coated with human VISTA; unit nM from the legend paragraph 697
[16] = molecular target: T10, recombinant mouse VISTA (His-tagged); test: ELISA, plate coated with mouse VISTA; unit nM from the legend paragraph 697
[17] = molecular target: T3, recombinant human VISTA (His-tagged); test: ELISA, plate coated with human VISTA; unit nM from the legend paragraph 698
[18] = molecular target: T10, recombinant mouse VISTA (His-tagged); test: ELISA, plate coated with mouse VISTA; unit nM from the legend paragraph 698
[19] = molecular target: T11, human PD-L1 (human, UniProt Q9NZQ7 19-239); test: BLI (Octet), His-tagged human PD-L1 on anti-Penta-HIS biosensor, antibody 500-15.6 nM
T11 construct: captured through a His tag in the BLI experiments; also called hPD-L1; B7H1/PDL-1
Procedure: Finally, the biosensors were incubated for 120 sec in PBS pH 7.2 to obtain the dissociation curves. Kinetic and affinity constants were calculated by global fitting of the association and dissociation data to a 1:1 binding model.

[20] = molecular target: T3, recombinant human VISTA (His-tagged); test: ELISA, plate coated with human VISTA; remark: listed apart in the source
[21] = molecular target: T4, human PD-1; test: ELISA, plate coated with the antigen; remark: listed apart in the source
[22] = molecular target: T5, human B7H3; test: ELISA, plate coated with the antigen; remark: listed apart in the source
[23] = molecular target: T6, human B7H4; test: ELISA, plate coated with the antigen; remark: listed apart in the source
[24] = molecular target: T7, human B7H6; test: ELISA, plate coated with the antigen; remark: listed apart in the source
[25] = molecular target: T8, human B7H7; test: ELISA, plate coated with the antigen; remark: listed apart in the source
[26] = molecular target: T9, human CTLA4; test: ELISA, plate coated with the antigen; remark: listed apart in the source
[27] = molecular target: T3, recombinant human VISTA (His-tagged); test: ELISA, plate coated with human VISTA; remark: listed apart in the source
[28] = molecular target: T4, human PD-1; test: ELISA, plate coated with the antigen; remark: listed apart in the source
[29] = molecular target: T5, human B7H3; test: ELISA, plate coated with the antigen; remark: listed apart in the source
[30] = molecular target: T6, human B7H4; test: ELISA, plate coated with the antigen; remark: listed apart in the source
[31] = molecular target: T7, human B7H6; test: ELISA, plate coated with the antigen; remark: listed apart in the source
[32] = molecular target: T8, human B7H7; test: ELISA, plate coated with the antigen; remark: listed apart in the source
[33] = molecular target: T9, human CTLA4; test: ELISA, plate coated with the antigen; remark: listed apart in the source

T4 sequence (Q15116 25-167 limits assumed): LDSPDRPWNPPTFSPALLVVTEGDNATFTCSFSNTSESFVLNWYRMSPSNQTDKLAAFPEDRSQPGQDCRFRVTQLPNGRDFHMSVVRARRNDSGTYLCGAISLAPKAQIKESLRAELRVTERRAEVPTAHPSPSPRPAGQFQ
T11 sequence (Q9NZQ7 19-239 limits assumed): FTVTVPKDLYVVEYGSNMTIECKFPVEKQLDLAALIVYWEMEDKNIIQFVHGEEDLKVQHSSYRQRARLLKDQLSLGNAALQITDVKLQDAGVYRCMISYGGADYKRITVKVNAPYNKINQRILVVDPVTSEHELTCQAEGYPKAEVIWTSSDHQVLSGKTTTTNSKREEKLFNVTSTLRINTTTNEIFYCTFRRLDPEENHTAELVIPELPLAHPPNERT
T9 sequence (P16410 36-162 limits assumed): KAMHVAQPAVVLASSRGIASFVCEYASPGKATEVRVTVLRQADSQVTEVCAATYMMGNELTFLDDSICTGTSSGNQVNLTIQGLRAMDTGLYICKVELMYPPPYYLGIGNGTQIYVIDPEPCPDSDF

EC50 [1]: 0.217 nM
EC50 [2]: 0.0367 nM
EC50 (read off the curve) [3]: ~0.03 nM
binding result [4]: no binding (tested: log -7.5 M)
binding result [5]: no binding (tested: log -7.5 M)
binding result [6]: no binding (tested: log -7.5 M)
binding result [7]: no binding (tested: log -7.5 M)
binding result [8]: no binding (tested: log -7.5 M)
binding result [9]: no binding (tested: log -7.5 M)
EC50 [10]: 0.0346 nM
EC50 [11]: 0.0365 nM
Kd [12]: < 0.001 nM
koff [12]: < 1e-07 s⁻¹
kon [12]: 507000 M⁻¹ s⁻¹
Kd [13]: 0.17 nM
koff [13]: 8.2e-05 s⁻¹
kon [13]: 475000 M⁻¹ s⁻¹
Kd [14]: 0.489 nM
koff [14]: 0.00025 s⁻¹
kon [14]: 520000 M⁻¹ s⁻¹
EC50 [15]: 0.0015 nM
EC50 [16]: 0.0045 nM
EC50 [17]: 0.053 nM
EC50 [18]: 0.064 nM
binding result [19]: no binding (tested: 500 nM)
B1: anti-VISTA clone V4-C28 IgG1 (antibody, V domains shown)
VH: QVQLQESGPGLVKPSDTLSLTCTVSGYSITSDYTWNWIRQTPGKGLEWIGHITYSGSVSYNPSLRSRVTISRDTSKNQFSLKLSSVTAADTATYSCARALYYPWYFDVWGTGTTVTVSS
VL: EIVLTQSPATLSLSPGERATLSCRASSSVGYIHWYQQKPGQAPRPLIYATSYRATGIPARFSGSGSGTDNTLTISSLEPEDSAVYYCQQWSSYPPITFGGGTKLEVKR

EC50 [1]: 0.206 nM
EC50 [2]: 0.0272 nM
EC50 (read off the curve) [20]: ~0.02 nM
binding result [21]: no binding (tested: log -7.5 M)
binding result [22]: no binding (tested: log -7.5 M)
binding result [23]: no binding (tested: log -7.5 M)
binding result [24]: no binding (tested: log -7.5 M)
binding result [25]: no binding (tested: log -7.5 M)
binding result [26]: no binding (tested: log -7.5 M)
EC50 [10]: 0.0318 nM
EC50 [11]: 0.0326 nM
Kd [12]: < 0.001 nM
koff [12]: < 1e-07 s⁻¹
kon [12]: 593000 M⁻¹ s⁻¹
Kd [13]: 0.005 nM
koff [13]: 2.8e-06 s⁻¹
kon [13]: 505000 M⁻¹ s⁻¹
Kd [14]: < 0.001 nM
koff [14]: < 1e-07 s⁻¹
kon [14]: 533000 M⁻¹ s⁻¹
EC50 [15]: < 0.0007 nM
EC50 [16]: 0.0013 nM
EC50 [17]: 0.088 nM
EC50 [18]: 0.123 nM
binding result [19]: no binding (tested: 500 nM)
B2: anti-VISTA clone V4-C30 IgG1 (antibody, V domains shown)
VH: B1 VH
VL: B1 VL with S51Y

EC50 [1]: 0.224 nM
EC50 [2]: 0.0321 nM
EC50 (read off the curve) [27]: ~0.02 nM
binding result [28]: no binding (tested: log -7.5 M)
binding result [29]: no binding (tested: log -7.5 M)
binding result [30]: no binding (tested: log -7.5 M)
binding result [31]: no binding (tested: log -7.5 M)
binding result [32]: no binding (tested: log -7.5 M)
binding result [33]: no binding (tested: log -7.5 M)
EC50 [10]: 0.0408 nM
EC50 [11]: 0.04 nM
Kd [12]: < 0.001 nM
koff [12]: < 1e-07 s⁻¹
kon [12]: 623000 M⁻¹ s⁻¹
Kd [13]: < 0.001 nM
koff [13]: < 1e-07 s⁻¹
kon [13]: 570000 M⁻¹ s⁻¹
Kd [14]: < 0.001 nM
koff [14]: < 1e-07 s⁻¹
kon [14]: 344000 M⁻¹ s⁻¹
EC50 [15]: 0.0032 nM
EC50 [16]: 0.003 nM
EC50 [17]: 0.02 nM
EC50 [18]: 0.028 nM
binding result [19]: no binding (tested: 500 nM)
B3: anti-VISTA clone V4-C31 IgG1 (antibody, V domains shown)
VH: B1 VH
VL: B1 VL with S51Y, A54T
